The record followed here is patent US20220298218A1 (ANTAG THERAPEUTICS, published 2022).

To fix the notation:
T1: human GIP receptor (human, UniProt P48546 22-466)
T1 sequence (looked up): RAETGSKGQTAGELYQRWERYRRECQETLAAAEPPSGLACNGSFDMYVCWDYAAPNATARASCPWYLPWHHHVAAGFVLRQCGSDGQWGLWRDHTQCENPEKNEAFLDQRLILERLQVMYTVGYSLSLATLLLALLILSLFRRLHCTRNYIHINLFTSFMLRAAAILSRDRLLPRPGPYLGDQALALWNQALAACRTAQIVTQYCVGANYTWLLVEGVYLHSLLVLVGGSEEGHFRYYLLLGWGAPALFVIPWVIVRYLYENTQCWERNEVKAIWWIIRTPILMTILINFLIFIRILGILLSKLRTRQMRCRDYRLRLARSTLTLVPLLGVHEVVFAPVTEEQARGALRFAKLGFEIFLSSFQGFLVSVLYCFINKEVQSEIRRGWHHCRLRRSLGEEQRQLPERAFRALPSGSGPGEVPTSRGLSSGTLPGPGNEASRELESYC

B1: AT591 (peptide)
peptide: EGTFISDYSIAMDKIK([AEEA-AEEA-γGlu-C18 diacid])QQDFVNWLLAGGPSSGAPPPS-NH2
modifications: N-terminus assumed
SMILES: CC[C@H](C)[C@H](NC(=O)[C@H](CO)NC(=O)[C@H](Cc1ccc(O)cc1)NC(=O)[C@H](CC(=O)O)NC(=O)[C@H](CO)NC(=O)[C@@H](NC(=O)[C@H](Cc1ccccc1)NC(=O)[C@@H](NC(=O)CNC(=O)[C@@H](N)CCC(=O)O)[C@@H](C)O)[C@@H](C)CC)C(=O)N[C@@H](C)C(=O)N[C@@H](CCSC)C(=O)N[C@@H](CC(=O)O)C(=O)N[C@@H](CCCCN)C(=O)N[C@H](C(=O)N[C@@H](CCCCNC(=O)COCCOCCNC(=O)COCCOCCNC(=O)CC[C@H](NC(=O)CCCCCCCCCCCCCCCCC(=O)O)C(=O)O)C(=O)N[C@@H](CCC(N)=O)C(=O)N[C@@H](CCC(N)=O)C(=O)N[C@@H](CC(=O)O)C(=O)N[C@@H](Cc1ccccc1)C(=O)N[C@H](C(=O)N[C@@H](CC(N)=O)C(=O)N[C@@H](Cc1c[nH]c2ccccc12)C(=O)N[C@@H](CC(C)C)C(=O)N[C@@H](CC(C)C)C(=O)N[C@@H](C)C(=O)NCC(=O)NCC(=O)N1CCC[C@H]1C(=O)N[C@@H](CO)C(=O)N[C@@H](CO)C(=O)NCC(=O)N[C@@H](C)C(=O)N1CCC[C@H]1C(=O)N1CCC[C@H]1C(=O)N1CCC[C@H]1C(=O)N[C@@H](CO)C(N)=O)C(C)C)[C@@H](C)CC
B2: AT590 (peptide)
peptide: EGTFISDYSIAMDKIK([AEEA-AEEA-γGlu-C18 diacid])QQDFVNWLLAQGPSSGAPPPS-NH2
modifications: N-terminus assumed
SMILES: CC[C@H](C)[C@H](NC(=O)[C@H](CO)NC(=O)[C@H](Cc1ccc(O)cc1)NC(=O)[C@H](CC(=O)O)NC(=O)[C@H](CO)NC(=O)[C@@H](NC(=O)[C@H](Cc1ccccc1)NC(=O)[C@@H](NC(=O)CNC(=O)[C@@H](N)CCC(=O)O)[C@@H](C)O)[C@@H](C)CC)C(=O)N[C@@H](C)C(=O)N[C@@H](CCSC)C(=O)N[C@@H](CC(=O)O)C(=O)N[C@@H](CCCCN)C(=O)N[C@H](C(=O)N[C@@H](CCCCNC(=O)COCCOCCNC(=O)COCCOCCNC(=O)CC[C@H](NC(=O)CCCCCCCCCCCCCCCCC(=O)O)C(=O)O)C(=O)N[C@@H](CCC(N)=O)C(=O)N[C@@H](CCC(N)=O)C(=O)N[C@@H](CC(=O)O)C(=O)N[C@@H](Cc1ccccc1)C(=O)N[C@H](C(=O)N[C@@H](CC(N)=O)C(=O)N[C@@H](Cc1c[nH]c2ccccc12)C(=O)N[C@@H](CC(C)C)C(=O)N[C@@H](CC(C)C)C(=O)N[C@@H](C)C(=O)N[C@@H](CCC(N)=O)C(=O)NCC(=O)N1CCC[C@H]1C(=O)N[C@@H](CO)C(=O)N[C@@H](CO)C(=O)NCC(=O)N[C@@H](C)C(=O)N1CCC[C@H]1C(=O)N1CCC[C@H]1C(=O)N1CCC[C@H]1C(=O)N[C@@H](CO)C(N)=O)C(C)C)[C@@H](C)CC
B3: AT592 (peptide)
peptide: EGTFISDYSIAMDKIK([AEEA-AEEA-γGlu-C18 diacid])QQDFVNWLLAGGPSSGAPPPS-OH
modifications: N-terminus assumed
SMILES: CC[C@H](C)[C@H](NC(=O)[C@H](CO)NC(=O)[C@H](Cc1ccc(O)cc1)NC(=O)[C@H](CC(=O)O)NC(=O)[C@H](CO)NC(=O)[C@@H](NC(=O)[C@H](Cc1ccccc1)NC(=O)[C@@H](NC(=O)CNC(=O)[C@@H](N)CCC(=O)O)[C@@H](C)O)[C@@H](C)CC)C(=O)N[C@@H](C)C(=O)N[C@@H](CCSC)C(=O)N[C@@H](CC(=O)O)C(=O)N[C@@H](CCCCN)C(=O)N[C@H](C(=O)N[C@@H](CCCCNC(=O)COCCOCCNC(=O)COCCOCCNC(=O)CC[C@H](NC(=O)CCCCCCCCCCCCCCCCC(=O)O)C(=O)O)C(=O)N[C@@H](CCC(N)=O)C(=O)N[C@@H](CCC(N)=O)C(=O)N[C@@H](CC(=O)O)C(=O)N[C@@H](Cc1ccccc1)C(=O)N[C@H](C(=O)N[C@@H](CC(N)=O)C(=O)N[C@@H](Cc1c[nH]c2ccccc12)C(=O)N[C@@H](CC(C)C)C(=O)N[C@@H](CC(C)C)C(=O)N[C@@H](C)C(=O)NCC(=O)NCC(=O)N1CCC[C@H]1C(=O)N[C@@H](CO)C(=O)N[C@@H](CO)C(=O)NCC(=O)N[C@@H](C)C(=O)N1CCC[C@H]1C(=O)N1CCC[C@H]1C(=O)N1CCC[C@H]1C(=O)N[C@@H](CO)C(=O)O)C(C)C)[C@@H](C)CC
B4: AT594 (peptide)
peptide: EGTFISDYSIAMDKIHQK([AEEA-AEEA-γGlu-C18 diacid])DFVNWLLAQKPSSGAPPPS-NH2
modifications: N-terminus assumed
SMILES: CC[C@H](C)[C@H](NC(=O)[C@H](CO)NC(=O)[C@H](Cc1ccc(O)cc1)NC(=O)[C@H](CC(=O)O)NC(=O)[C@H](CO)NC(=O)[C@@H](NC(=O)[C@H](Cc1ccccc1)NC(=O)[C@@H](NC(=O)CNC(=O)[C@@H](N)CCC(=O)O)[C@@H](C)O)[C@@H](C)CC)C(=O)N[C@@H](C)C(=O)N[C@@H](CCSC)C(=O)N[C@@H](CC(=O)O)C(=O)N[C@@H](CCCCN)C(=O)N[C@H](C(=O)N[C@@H](Cc1c[nH]cn1)C(=O)N[C@@H](CCC(N)=O)C(=O)N[C@@H](CCCCNC(=O)COCCOCCNC(=O)COCCOCCNC(=O)CC[C@H](NC(=O)CCCCCCCCCCCCCCCCC(=O)O)C(=O)O)C(=O)N[C@@H](CC(=O)O)C(=O)N[C@@H](Cc1ccccc1)C(=O)N[C@H](C(=O)N[C@@H](CC(N)=O)C(=O)N[C@@H](Cc1c[nH]c2ccccc12)C(=O)N[C@@H](CC(C)C)C(=O)N[C@@H](CC(C)C)C(=O)N[C@@H](C)C(=O)N[C@@H](CCC(N)=O)C(=O)N[C@@H](CCCCN)C(=O)N1CCC[C@H]1C(=O)N[C@@H](CO)C(=O)N[C@@H](CO)C(=O)NCC(=O)N[C@@H](C)C(=O)N1CCC[C@H]1C(=O)N1CCC[C@H]1C(=O)N1CCC[C@H]1C(=O)N[C@@H](CO)C(N)=O)C(C)C)[C@@H](C)CC
B5: AT593 (peptide)
peptide: EGTFISDYSIAMDKIK([AEEA-AEEA-γGlu-C18 diacid])QQDFVNWLLAQPSSGAPPPS-NH2
modifications: N-terminus assumed
SMILES: CC[C@H](C)[C@H](NC(=O)[C@H](CO)NC(=O)[C@H](Cc1ccc(O)cc1)NC(=O)[C@H](CC(=O)O)NC(=O)[C@H](CO)NC(=O)[C@@H](NC(=O)[C@H](Cc1ccccc1)NC(=O)[C@@H](NC(=O)CNC(=O)[C@@H](N)CCC(=O)O)[C@@H](C)O)[C@@H](C)CC)C(=O)N[C@@H](C)C(=O)N[C@@H](CCSC)C(=O)N[C@@H](CC(=O)O)C(=O)N[C@@H](CCCCN)C(=O)N[C@H](C(=O)N[C@@H](CCCCNC(=O)COCCOCCNC(=O)COCCOCCNC(=O)CC[C@H](NC(=O)CCCCCCCCCCCCCCCCC(=O)O)C(=O)O)C(=O)N[C@@H](CCC(N)=O)C(=O)N[C@@H](CCC(N)=O)C(=O)N[C@@H](CC(=O)O)C(=O)N[C@@H](Cc1ccccc1)C(=O)N[C@H](C(=O)N[C@@H](CC(N)=O)C(=O)N[C@@H](Cc1c[nH]c2ccccc12)C(=O)N[C@@H](CC(C)C)C(=O)N[C@@H](CC(C)C)C(=O)N[C@@H](C)C(=O)N[C@@H](CCC(N)=O)C(=O)N1CCC[C@H]1C(=O)N[C@@H](CO)C(=O)N[C@@H](CO)C(=O)NCC(=O)N[C@@H](C)C(=O)N1CCC[C@H]1C(=O)N1CCC[C@H]1C(=O)N1CCC[C@H]1C(=O)N[C@@H](CO)C(N)=O)C(C)C)[C@@H](C)CC

*1 amine or outer side, *2 acyl side, *3 side chain or, on linkers, in order; H or OH if unused. Where no end group is shown, it is not given here. Side-chain parts run from the residue outwards. The star is where a group is joined. C18 diacid = O=C(O)CCCCCCCCCCCCCCCCC(=O)*; γGlu = O=C(O)[C@H](CCC(=O)[*:2])N[*:1]; PEG = not defined here; AEEA = NCCOCCOCC(=O)O

The test concerns the target T1, human GIP receptor. The experiment in a line: cell-based or functional assay.
For B1, the “cAMP agonism % Emax” value was determined as 0%, the “cAMP antagonism” value was 21.5 nM, the “cAMP antagonism % inhib” value was found to be 92% and the “cAMP antagonism pIC50” value worked out at 7.7.

In the case of TFISDYK([PEG-PEG-γGlu-C18 diacid])IAMDKIHQQDFVNWLLAGGPSSGAPPPS (not fully specified (C-terminus); reading uncertain) [AT602], the “cAMP agonism % Emax” value stood at 0%, the “cAMP antagonism” value was 35.5 nM, the “cAMP antagonism % inhib” value came out at 100% and the “cAMP antagonism pIC50” value stood at 7.5.

With B2, the “cAMP agonism % Emax” value was found to be 0%, the “cAMP antagonism” value came to 5.41 nM, the “cAMP antagonism % inhib” value was 93% and the “cAMP antagonism pIC50” value is 8.3.

Regarding TFISDYK([PEG-PEG-γGlu-C18 diacid])IAMDKIHQQDFVNWLLAQKPSSGAPPPS-NH2 (reading uncertain; also: 2xPEG: PEG unit not given here) [AT597], the “cAMP agonism % Emax” value was found to be 0%, the “cAMP antagonism” value was 79.4 nM, the “cAMP antagonism % inhib” value turned out to be 81% and the “cAMP antagonism pIC50” value was determined as 7.1.

Regarding B3, the “cAMP agonism % Emax” value was 0%, the “cAMP antagonism” value is 6.31 nM, the “cAMP antagonism % inhib” value turned out to be 88% and the “cAMP antagonism pIC50” value amounted to 8.2.

For the molecule B4, the “cAMP agonism % Emax” value was 0%, the “cAMP antagonism” value is 79.4 nM, the “cAMP antagonism % inhib” value came out at 80% and the “cAMP antagonism pIC50” value amounted to 7.1.

Turning to B5, the “cAMP agonism % Emax” value amounted to 0%, the “cAMP antagonism” value amounted to 63.1 nM, the “cAMP antagonism % inhib” value stood at 86% and the “cAMP antagonism pIC50” value is 7.2.
